Reference: the DeepSol protein solubility set

Assay: soluble on expression in E. coli; label from the status in PepcDB or PDB records

| Sequence | soluble on expression in E. coli |
| --- | --- |
| MTDKQAIREQMWQEMTEKKVGRFPFPLKGRIPNFKGAEQATRHLIQLEAYKQAKVVKVNPDSPQLPLRAQVLMDGKTLLVPTPRLKDGFILVKPEWVPEGEERKAVSLRNILSYGKVISLTEMPEIDLIVMGSVAVDRSGRRIGKGEGYADREYAIIRELGNRPVPVVTTVHQVQLVDVELPRDAYDVTVDWIATTEGLMQSVGAIEKPTGIVWSEVTEEELEAMPVLREIRELTKRQLEHHHHHH | soluble |
| MTDNARKEYLNQFFGSKRYLYQDNERVAHIHVVNGTYYFHGHIVPGWQGVKKTFDTAEELETYIKQQDLEYEEQKQLTLFLEHHHHHH | not soluble |
| MTDNDAVSAAFAHMRQEAKKRTGTVPNLNRPLPKASKSLADNDATPAVPKQRGMATGPDGRRRRRSYSVQRAGSILSDEIKKRGWRKEIAGGWVNSHWDDLVGAQIAAHTKVEMFKDKALFITCDSTAWATNLRMMQRIILRSISEQIGPDIIVELKIFGPKAPSWRHGPLHVKGRGPRDTYG | not soluble |
| MTDNSNIRVVVGMSGGVDSSVTALLLKEQGYDVIGVFMKNWDDTDEFGVCTATEDYKDVAAVADQIGIPYYSVNFEKEYWDRVFEYFLAEYRAGRTPNPDVMCNKEIKFKAFLDYAMTLGADYVATGHYAQVTRDENGIVHMLRGADNNKDQTYFLSQLSQEQLQKTLFPLGHLQKPEVRRIAEEAGLATAKKKDSTGICFIGEKNFKDFLGQYLPAQPGRMMTVDGRDMGEHAGLMYYTIGQRGGLGIGGQHGGDNKPWFVVGKDLSKNILYVGQGFYHDSLMSTSLTASEIHFTRDMPNEFKLECTAKFRYRQPDSKVTVYVKGNQARVVFDDLQRAITPGQAVVFYNEQECLGGGMIDQAYRDDKICQYIMAGDPLEHHHHHH | not soluble |
| MTDQPIIDYRFLEPLPRGIILAATPLGNIGDASPRLAQALAQAHVVAAEDTRRTRALAQALGVEITGQVLSNFDHNEQGRAQQLVEMARTHTVVVVTDAGMPIVSDPGFPLVEAAHKAGVPVTCFPGPSAVPTALALSGLHVGKFAFDGFAPRKQGQRRAWLESLQQEQRAVCFFESPHRIAATLADAAEVLGAKRRAAVARELTKTFEEVRRGGLGELAEWAAKGIKGEVSVVIEGVQHVQHEDVHSLVAVVEERVLAGERLKSACGEVAAHYGVSKKQLYDAVLESRAE | soluble |
| MTDTASKYAVKLKTNFEDPKWVNRHKFMFNFLDINGNGKITLDEIVSKASDDICAKLGATPAQTQRHQEAVEAFFKKIGLDYGKEVEFPAFVNGWKELAKHDLKLWSQNKKSLIRNWGEAVFDIFDKDGSGSISLDEWKTYGGISGICPSDEDAEKTFKHCDLDNSGKLDVDEMTRQHLGFWYTLDPNADGLYGNFVP | soluble |
| MTDVALSQDVSRFLRYLGVERQLSPITLLNYQRQLDAIIALAGETGLKSWQQCDAAIVRSFAVRSRRKGLGPASLALRLSALRSFFDWLVSQGELKANPAKGVSAPKAPRHLPKNIDVDDVNRLLDIDLNDPLAVRDRAMLEVMYGAGLRLSELVGLDIKHLDLDTGEVWVMGKGSKERRLPIGRNAVTWIEHWLDLRGLFASDEEALFLSKLGKRISARNVQKRFAEWGIKQGLNSHVHPHKLRHSFATHMLESSGDLRGVQELLGHANLSTTQIYTHLDFQHLASVYDAAHPRAKRGK | not soluble |
| MTDVEIKAENGSGDASLEPENLRKIFVGGLTSNTTDDLMREFYSQFGEITDIIVMRDPTTKRSRGFGFVTFSGKTEVDAAMKQRPHIIDGKTVDPKRAVPRDDKNRSESNVSTKRLYVSGVREDHTEDMLTEYFTKYGTVTKSEIILDKATQKPRGFGFVTFDDHDSVDQCVLQKSHMVNGHRCDVRKGLSKDEMSKAQMNRDRETRGGRSRDGQRGGYNGGGGGGGGWGGPAQRGGPGAYGGPGGGGQGGYGGDYGGGWGQQGGGGQGGWGGPQQQQGGGGWGQQGGGGQGGWGGPQQQQQGGWGGPQQGGGGGGWGGQGQQQGGWGGQSGAQQWAHAQGGNRNY | not soluble |
| MTDYAHKMSLDLRMIDLERYSDHIDNKASHCAKMLNDYYQKFDAQKGTQFVFSDLGTYKPGGEFNVYSEIKRKLVEDYHIPSHEVRFIQECKNEKAKKAMVDAMNRGDIRIIFGSTSMLGTGVNAQQRAVAIHHLDTPWRPSDLEQRNGRAVRKGNMIAKEFADNKVDVIIYAVERSLDSYKFNLLHNKQLFINQLKTNTLGSRTIDEGSMDEDGGMNFSEYVAVLSGNTNLLEKAKLDKKIATLESERKNFLRERDTATGKLAEIDSSVSFHSDKIKEAKEDLACFEKRVERDAEGLPINKLTIKGVEGSTDIKVIAARLQEIEEKARTKGEYNKIGEIYGFSIMVKTENSSKELFDCSSNRFFVKGQESIYYTYNNGKLASDPKLACQNFINALERIPKVIESHEKEKEKVSANKEVYMTIAGGSWKKEDELRSLKGQAAELDRKIALTLAPPEEEKETEEEKQVQEHGISGKEPIQETRYSAEPISHKQAEKTPPSEQVTPPPTRQPRSNEPGGYIETQMEIG | not soluble |
| MTDYDLAKETAAWLNKQLQIRPVLGIVCGSGLGKIGDSLETSITVAYSDIPNFPVGSVKGHAGSLIFGSVNGVSCVCMKGRFHLYEGHTAARATFPMRVFKALGVKIVVLTNAAGGLNPSYRPGDFMVVRDHINLPGLAGANPLTGPNDDTEGERFPSMTSVYDKTLRKYAISAARELGMSYATHEGVYCCVNGPSFETPAECKILRLMGSDAVGMSTAPETIVAKHGGMRCLAVSLISNVIASNCETPAEPTHEEVLRAGEEASARMTALVKLVIEKIRGELPR | soluble |
| MTEAQRHQILLEMLAQLGFVTVEKVVERLGISPATARRDINKLDESGKLKKVRNGAEAITQQRPRWTPMNLHQAQNHDEKVRIAKAASQLVNPGESVVINCGSTAFLLGREMCGKPVQIITNYLPLANYLIDQEHDSVIIMGGQYNKSQSITLSPQGSENSLYAGHWMFTSGKGLTAEGLYKTDMLTAMAEQKMLSVVGKLVVLVDSSKIGERAGMLFSRADQIDMLITGKNANPEILQQLEAQGVSILRVLEHHHHHH | not soluble |
| MTEDGVMKIDASTSTIKEPEPADCVILPTHTNEQVVYYKSWIAFGDNPNYLTYNRDLGYADWYGIVDCSDSPPTGPGVYKAFIYVNDLNYQESGNPLFKVTGRLKFLANKDTSDTMMKLEIFEQNRLEELRLSPKKMSDSQVIAIILFDNEETNSAICYSEQLESSIKVHLPVGSPAKAGQLILFTEYNYENDTYFPDPRPDAIEYRECEMTRIENGELLISAKAACSSIETHITYPQSVAFADTFGKVNVAAESMERGVTYRVELAINIIDSEANNVPLFKISDIGEKLTGEENEAFLRKLNDFEELQGTWEDWTPEEIAVELEPVAAAEEPADPEVEEAKIEENGVNDESLTQSESDSVFLPQIESSASSEETMSESNSAENSEKPKKTFGRMPQSLSESSSSTISSSKVGVDHSVIVLNVDNDECVGFETTQLKLMTICTAGVTVPLRPYGIFQFIAAGNNYGKTSIQTQSARVSECEGAVFSSDDVPKISANVIFSSNPKHKSYNKEVGVSDRYGFVEIPRITGDFEFGTVYSTQITMVQYGDPLKACFKAVAPLKRQFIDDLDHYLQVMGKYEDNIYQLSRKNGLGAKSISRLPNEPRNGSKHGSTKRFTTPHVTGLVVDMEKRGNYFGCVWTCFGDVVFKSTPTFSQNGGYPSVGDLVNIRVEILSPGTKDQKNLGASMTEKPASLSTTVIWRNNGFIVKAYLIMKPEKLIYSEDNNRFYEHDQLGIVVADSSIYGSDNEQSKVFEFERLRNPITLGFTTNLMNKCYWAARLPMIHREPSPPEPINKYNDENVYDDFQKGGPQSVNSYRSDRQYQEKPPMQYQSYHDPADTISIHSQDNHRPMETRSNAGTSVSSVDRKEVGVVMKKVDKNTQIVYLSGQKAAAIHHWNTHSQSTIVGNSYIFMYRPIEVHKATHYAPFEITQVVEILNTENHGRVDRSEFSSLFTFDLCNVDQRYVERLAFGEALVLRSNDVGHVVMASNVKTPLNPSMTAVEVCQTYKGKRESENLVGYCRLVYGKVPREIVDGHFSDQFVSAYYFELHEILATSNAYIVRNENLDRRNLRGNTIEEVRDDISIQKRIAHMNFGQNEQQQQQSSLSSRGPTRPYSPVGSYQSSHQNFDNRSAAHNGDGRSTSQSHHSAGGSMNHQNFYQPPVYQSSSSQQSYQPRYNGAPSGPLPPPSSQSSFNGAPAPPHYSEMSNDYNRMVRKLAELTDTAAQMIINNDIRQQIKNISPDLLDDLERNIDACQREKRHYYEKYGN | not soluble |
| MTEDRLSAEDKKFLEVERALKEAALNPLRHATEELFGDFLKMENITEICYNGNKVVWVLKNNGEWQPFDVRDRKAFSLSRLMHFARCCASFKKKTIDNYENPILSSNLANGERVQIVLSPVTVNDETISISIRIPSKTTYPHSFFEEQGFYNLLDNKEQAISAIKDGIAIGKNVIVCGGTGSGKTTYIKSIMEFIPKEERIISIEDTEEIVFKHHKNYTQLFFGGNITSADCLKSCLRMRPDRIILGELRSSEAYDFYNVLCSGHKGTLTTLHAGSSEEAFIRLANMSSSNSAARNIKFESLIEGFKDLIDMIVHINHHKQCDEFYIKHR | soluble |
| MTEEIVELVLRERISPLLRSHGGDLSLSQIKDKTVFVRFSGACRFCPAAHETVEKIVQAMIREYFKDDNIDVILENSVSDDLLEQAKNILRKPK | not soluble |
| MTEHKSGFVSIIGRPNVGKSTFVNRVIGHKIAIMSDKAQTTRNKIQGVMTRDDAQIIFIDTPGIHKPKHKLGDYMMKVAKNTLSEIDAIMFMVNANEEIGRGDEYIIEMLKNVKTPVFLVLNKIDLVHPDELMPKIEEYQSYMDFTEIVPISALEGLNVDHFIDVLKTYLPEGPKYYPDDQISDHPEQFVVGEIIREKILHLTSEEIPHAIGVNVDRMVKESEDRVHIEATIYVERDSQKGIVIGKGGKKLKEVGKRARRDIEMLLGSKVYLELWVKVQRDWRNKVNFIRQIGYVEDQD | not soluble |
| MTEIQTIRKKVEQQITSLQNETDEIAEFNQAKVLDAFQENKVSDFHFNPSTGYGYDDEGRDTLERVYASVFKTEAALVRPQIISGTHAISTVLFGILRPGDELLYITGEPYDTLEEIVGIRSEGQGSLKDFQIGYDAVPLLPNGEIDYPAVSKKISANTKMIGIQRSRGYADRPSFTIEKIKEMVTFVKNINPNIIVFVDNCYGEFVERIEPTEVGADIIAGSLIKNPGGGLAKTGGYIAGRNTLVDLCGYRLTTPGIGREAGASLYSLLEMYQGFFLAPHVTAQAIKGARFTAAMLAEFGVEADPLWDAKRTDLIQSVSFHSKDKMIAFAQAIQAASPVNAHVLPIGAYMPGYEDDVIMAAGTFIQGASLELTADGPIREPYQLYVQGGLTYEHVKIAVTRAIENSLLEHHHHHH | soluble |
| MTEKTIEFEGIEPVIIFGPYDSYLKKVREAFPDIRINARGAKITIGGDEPDLTAIEKIFREIIFLADQHGEVLENDVNALVSLALSPVSHPSAALSGDKDVIVETKDYVVKAKTDGQRRMVAEAAGNDIVFAIGPAGTGKTYTAVAIAVAAWKAKKIKRIVLARPAVEAGESLGFLPGDLAQKIDPYLRPLYDALQDMLTAEKLKFLTERRVIEIVPLAYMRGRTLNNSFIILDEAQNASSKQMMMCLTRLGVNSKAIITGDVTQVDLPKEMESGLMNAQKILKGIKGISFVFLDKSDVVRHRLVKDIINAYEHHEEGLRKGAPKEAEL | not soluble |
| MTENLTVQPERLGVLASHHDNAAVDASSGVEAAAGLGESVAITHGPYCSQFNDTLNVYLTAHNALGSSLHTAGVDLAKSLRIAAKIYSEADEAWRKAIDGLFT | soluble |
| MTEPRSYTIEEIASLLKVSKLTVYDLVKKGKLPAFRVGRQMRITADDLRRFIAGQKGEASTVFSAVSRPTETAFRPIIISGQDMALDLLGVHLEKGGPYQSLRTYTSSLNGLIALYKGQCDIVSVHLFDGQTGEYNRPYVEKLLTGHAYIMVNLMRRPIGFYVPKGNPRGIHTWSDLGRSDVVIVNREKGAGARVLLDEQLRLHGLSPSAIRGYEREETSHLSVASAVAAGLADVGIGTEKVARMAGVEFIPLMNEQYDVVMLRTPENESLIASVLDVLRSDSFRAELEALGGYDVSQTGRIMAEYG | not soluble |
